Results: patent publication US20220025010A1 (ANTAG THERAPEUTICS, published 2022)
*1 amine or outer side, *2 acyl side, *3 side chain or, on linkers, in order; H or OH if unused. Where no end group is shown, it is not given here. Side-chain parts run from the residue outwards. [ ]: non-standard residue; d: D form. The star is where a group is joined. C18 diacid = O=C(O)CCCCCCCCCCCCCCCCC(=O)*; C16 diacid = O=C(O)CCCCCCCCCCCCCCC(=O)*; γGlu = O=C(O)[C@H](CCC(=O)[*:2])N[*:1]; pGlu = O=C1CC[C@@H](C(=O)O)N1; AEEA = NCCOCCOCC(=O)O

B1: AT379 (peptide)
peptide: [pGlu]GTFISDYSIAMDRIK([AEEA-AEEA-γGlu-C16 diacid])QQDFVNWLLAQR-NH2
B2: AT279 (peptide)
peptide: PGTFISDYSIAMDRIK([AEEA-AEEA-γGlu-C16 diacid])QQDFVNWLLAQR-OH
modifications: N-terminus assumed
SMILES: CC[C@H](C)[C@H](NC(=O)[C@H](CO)NC(=O)[C@H](Cc1ccc(O)cc1)NC(=O)[C@H](CC(=O)O)NC(=O)[C@H](CO)NC(=O)[C@@H](NC(=O)[C@H](Cc1ccccc1)NC(=O)[C@@H](NC(=O)CNC(=O)[C@@H]1CCCN1)[C@@H](C)O)[C@@H](C)CC)C(=O)N[C@@H](C)C(=O)N[C@@H](CCSC)C(=O)N[C@@H](CC(=O)O)C(=O)N[C@@H](CCCNC(=N)N)C(=O)N[C@H](C(=O)N[C@@H](CCCCNC(=O)COCCOCCNC(=O)COCCOCCNC(=O)CC[C@H](NC(=O)CCCCCCCCCCCCCCC(=O)O)C(=O)O)C(=O)N[C@@H](CCC(N)=O)C(=O)N[C@@H](CCC(N)=O)C(=O)N[C@@H](CC(=O)O)C(=O)N[C@@H](Cc1ccccc1)C(=O)N[C@H](C(=O)N[C@@H](CC(N)=O)C(=O)N[C@@H](Cc1c[nH]c2ccccc12)C(=O)N[C@@H](CC(C)C)C(=O)N[C@@H](CC(C)C)C(=O)N[C@@H](C)C(=O)N[C@@H](CCC(N)=O)C(=O)N[C@@H](CCCNC(=N)N)C(=O)O)C(C)C)[C@@H](C)CC
B3: AT496 (peptide)
peptide: GGTFISDYSIAMDRIK(C16 diacid)QQDFVNWLLAQR-NH2
modifications: N-terminus assumed
SMILES: CC[C@H](C)[C@H](NC(=O)[C@H](CO)NC(=O)[C@H](Cc1ccc(O)cc1)NC(=O)[C@H](CC(=O)O)NC(=O)[C@H](CO)NC(=O)[C@@H](NC(=O)[C@H](Cc1ccccc1)NC(=O)[C@@H](NC(=O)CNC(=O)CN)[C@@H](C)O)[C@@H](C)CC)C(=O)N[C@@H](C)C(=O)N[C@@H](CCSC)C(=O)N[C@@H](CC(=O)O)C(=O)N[C@@H](CCCNC(=N)N)C(=O)N[C@H](C(=O)N[C@@H](CCCCNC(=O)CCCCCCCCCCCCCCC(=O)O)C(=O)N[C@@H](CCC(N)=O)C(=O)N[C@@H](CCC(N)=O)C(=O)N[C@@H](CC(=O)O)C(=O)N[C@@H](Cc1ccccc1)C(=O)N[C@H](C(=O)N[C@@H](CC(N)=O)C(=O)N[C@@H](Cc1c[nH]c2ccccc12)C(=O)N[C@@H](CC(C)C)C(=O)N[C@@H](CC(C)C)C(=O)N[C@@H](C)C(=O)N[C@@H](CCC(N)=O)C(=O)N[C@@H](CCCNC(=N)N)C(N)=O)C(C)C)[C@@H](C)CC
B4: AT275 (peptide)
peptide: GGTFISDYSIAMDRIK([AEEA-AEEA-γGlu-C16 diacid])QQDFVNWLLAQR-OH
modifications: N-terminus assumed
SMILES: CC[C@H](C)[C@H](NC(=O)[C@H](CO)NC(=O)[C@H](Cc1ccc(O)cc1)NC(=O)[C@H](CC(=O)O)NC(=O)[C@H](CO)NC(=O)[C@@H](NC(=O)[C@H](Cc1ccccc1)NC(=O)[C@@H](NC(=O)CNC(=O)CN)[C@@H](C)O)[C@@H](C)CC)C(=O)N[C@@H](C)C(=O)N[C@@H](CCSC)C(=O)N[C@@H](CC(=O)O)C(=O)N[C@@H](CCCNC(=N)N)C(=O)N[C@H](C(=O)N[C@@H](CCCCNC(=O)COCCOCCNC(=O)COCCOCCNC(=O)CC[C@H](NC(=O)CCCCCCCCCCCCCCC(=O)O)C(=O)O)C(=O)N[C@@H](CCC(N)=O)C(=O)N[C@@H](CCC(N)=O)C(=O)N[C@@H](CC(=O)O)C(=O)N[C@@H](Cc1ccccc1)C(=O)N[C@H](C(=O)N[C@@H](CC(N)=O)C(=O)N[C@@H](Cc1c[nH]c2ccccc12)C(=O)N[C@@H](CC(C)C)C(=O)N[C@@H](CC(C)C)C(=O)N[C@@H](C)C(=O)N[C@@H](CCC(N)=O)C(=O)N[C@@H](CCCNC(=N)N)C(=O)O)C(C)C)[C@@H](C)CC
B5: AT273 (peptide)
peptide: PGTFISDYSIAMDRIKQQDFVNWLLAQR
HELM: PEPTIDE1{P.G.T.F.I.S.D.Y.S.I.A.M.D.R.I.K.Q.Q.D.F.V.N.W.L.L.A.Q.R}|PEPTIDE2{[O=C(O)CCCCCCCCCCCCCCC(=O)[*:2]].[gGlu].[O=C(COCCOCCN[*:1])[*:2]]}$PEPTIDE1,PEPTIDE2,16:R3-3:R2$$$V2.0; N-terminus assumed
SMILES: CC[C@H](C)[C@H](NC(=O)[C@H](CO)NC(=O)[C@H](Cc1ccc(O)cc1)NC(=O)[C@H](CC(=O)O)NC(=O)[C@H](CO)NC(=O)[C@@H](NC(=O)[C@H](Cc1ccccc1)NC(=O)[C@@H](NC(=O)CNC(=O)[C@@H]1CCCN1)[C@@H](C)O)[C@@H](C)CC)C(=O)N[C@@H](C)C(=O)N[C@@H](CCSC)C(=O)N[C@@H](CC(=O)O)C(=O)N[C@@H](CCCNC(=N)N)C(=O)N[C@H](C(=O)N[C@@H](CCCCNC(=O)COCCOCCNC(=O)CC[C@H](NC(=O)CCCCCCCCCCCCCCC(=O)O)C(=O)O)C(=O)N[C@@H](CCC(N)=O)C(=O)N[C@@H](CCC(N)=O)C(=O)N[C@@H](CC(=O)O)C(=O)N[C@@H](Cc1ccccc1)C(=O)N[C@H](C(=O)N[C@@H](CC(N)=O)C(=O)N[C@@H](Cc1c[nH]c2ccccc12)C(=O)N[C@@H](CC(C)C)C(=O)N[C@@H](CC(C)C)C(=O)N[C@@H](C)C(=O)N[C@@H](CCC(N)=O)C(=O)N[C@@H](CCCNC(=N)N)C(=O)O)C(C)C)[C@@H](C)CC
B6: AT391 (peptide)
peptide: [pGlu]GTFISDYSIAMDRIK(C18 diacid)QQDFVNWLLAQR-NH2
B7: AT381 (peptide)
peptide: [pGlu]GTFISDYSIAMDRIK([AEEA-AEEA-γGlu-C18 diacid])QQDFVNWLLAQR-NH2
B8: AT271 (peptide)
peptide: SGTFISDYSIAMDRIKQQDFVNWLLAQR
HELM: PEPTIDE1{S.G.T.F.I.S.D.Y.S.I.A.M.D.R.I.K.Q.Q.D.F.V.N.W.L.L.A.Q.R}|PEPTIDE2{[O=C(O)CCCCCCCCCCCCCCC(=O)[*:2]].[gGlu].[O=C(COCCOCCN[*:1])[*:2]]}$PEPTIDE1,PEPTIDE2,16:R3-3:R2$$$V2.0; N-terminus assumed
SMILES: CC[C@H](C)[C@H](NC(=O)[C@H](CO)NC(=O)[C@H](Cc1ccc(O)cc1)NC(=O)[C@H](CC(=O)O)NC(=O)[C@H](CO)NC(=O)[C@@H](NC(=O)[C@H](Cc1ccccc1)NC(=O)[C@@H](NC(=O)CNC(=O)[C@@H](N)CO)[C@@H](C)O)[C@@H](C)CC)C(=O)N[C@@H](C)C(=O)N[C@@H](CCSC)C(=O)N[C@@H](CC(=O)O)C(=O)N[C@@H](CCCNC(=N)N)C(=O)N[C@H](C(=O)N[C@@H](CCCCNC(=O)COCCOCCNC(=O)CC[C@H](NC(=O)CCCCCCCCCCCCCCC(=O)O)C(=O)O)C(=O)N[C@@H](CCC(N)=O)C(=O)N[C@@H](CCC(N)=O)C(=O)N[C@@H](CC(=O)O)C(=O)N[C@@H](Cc1ccccc1)C(=O)N[C@H](C(=O)N[C@@H](CC(N)=O)C(=O)N[C@@H](Cc1c[nH]c2ccccc12)C(=O)N[C@@H](CC(C)C)C(=O)N[C@@H](CC(C)C)C(=O)N[C@@H](C)C(=O)N[C@@H](CCC(N)=O)C(=O)N[C@@H](CCCNC(=N)N)C(=O)O)C(C)C)[C@@H](C)CC

biological target: T1, human GIP receptor (human, UniProt P48546 22-466); assay: cell-based or functional assay
T1 sequence (looked up): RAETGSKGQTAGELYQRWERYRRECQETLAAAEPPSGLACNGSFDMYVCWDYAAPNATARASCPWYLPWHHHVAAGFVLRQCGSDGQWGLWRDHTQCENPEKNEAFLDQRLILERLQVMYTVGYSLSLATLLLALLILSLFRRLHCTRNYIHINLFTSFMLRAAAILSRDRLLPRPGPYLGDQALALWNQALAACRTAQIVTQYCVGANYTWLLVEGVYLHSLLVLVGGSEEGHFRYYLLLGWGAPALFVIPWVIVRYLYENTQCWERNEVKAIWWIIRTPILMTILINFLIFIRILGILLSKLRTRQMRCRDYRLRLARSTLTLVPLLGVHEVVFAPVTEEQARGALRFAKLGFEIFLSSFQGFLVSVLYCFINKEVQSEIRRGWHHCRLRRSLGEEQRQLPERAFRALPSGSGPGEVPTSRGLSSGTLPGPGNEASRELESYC

Compared with B1, B2 is higher in “CisBio cAMP agonism % Efficacy” value: 0% for the first, 14% for the second.

Compared with B3, B4 is higher in “CisBio cAMP agonism % Efficacy” value: 0% for the first, 5% for the second.

B5 and B6 are the same in “CisBio cAMP agonism % Efficacy” value: 0% for the first, 0% for the second.

First: B7
Second: B8
The “CisBio cAMP agonism % Efficacy” value of the first is higher: 5% for the first, 2% for the second.

Compared with B1, B2 is lower in “CisBio cAMP antagonism % inhib” value: 95% for the first, 81% for the second.

Compared with B3, B4 is lower in “CisBio cAMP antagonism % inhib” value: 100% for the first, 66% for the second.

First: B6
Second: B7
The “CisBio cAMP antagonism % inhib” value of the first is higher: 95% for the first, 74% for the second.

With B8 the “CisBio cAMP antagonism % inhib” value was 73%.

First: B1
Second: B2
The “CisBio cAMP antagonism IC50” value of the first is 7.4-fold lower: 21.5 nM for the first, 159 nM for the second.

Compared with B3, B4 is 3.2-fold higher in “CisBio cAMP antagonism IC50” value: 39.8 nM for the first, 126 nM for the second.

First: B6
Second: B7
The “CisBio cAMP antagonism IC50” value of the first is 20-fold higher: 271 nM for the first, 13.6 nM for the second.

With B8 the “CisBio cAMP antagonism IC50” value was 85.8 nM.

Compared with B1, B2 is lower in “CisBio cAMP antagonism pIC50” value: 7.7 for the first, 6.8 for the second.

Compared with B3, B4 is lower in “CisBio cAMP antagonism pIC50” value: 7.4 for the first, 6.9 for the second.

First: B6
Second: B7
The “CisBio cAMP antagonism pIC50” value of the first is lower: 6.6 for the first, 7.9 for the second.

In the case of B8, the “CisBio cAMP antagonism pIC50” value is reported as 7.1.

Compared with B1, B3 is higher in “DiscoveRx cAMP antagonism % inhib” value: 96% for the first, 100% for the second.

B6 and B7 are the same in “DiscoveRx cAMP antagonism % inhib” value: 100% for the first, 100% for the second.

First: B1
Second: B2
The “DiscoveRx cAMP antagonism IC50” value of the first is 2.4-fold lower: 8 nM for the first, 19 nM for the second.

Compared with B3, B4 is 3.6-fold higher in “DiscoveRx cAMP antagonism IC50” value: 12 nM for the first, 43 nM for the second.

Compared with B5, B6 is 63-fold lower in “DiscoveRx cAMP antagonism IC50” value: 634 nM for the first, 10 nM for the second.

Compared with B7, B8 is 1.9-fold higher in “DiscoveRx cAMP antagonism IC50” value: 38 nM for the first, 71 nM for the second.

Compared with B1, B2 is higher in “DiscoveRx cAMP antagonism log IC50” value: -8.1 log M for the first, -7.7 log M for the second.

Going from B3 to B4, the “DiscoveRx cAMP antagonism log IC50” value rises from -7.9 log M to -7.4 log M.

Going from B5 to B6, the “DiscoveRx cAMP antagonism log IC50” value falls from -6.2 log M to -8 log M.

Compared with B7, B8 is higher in “DiscoveRx cAMP antagonism log IC50” value: -7.4 log M for the first, -7.2 log M for the second.

Going from B2 to B4, the “DiscoveRx cAMP agonism Emax” value falls from 17 to 5.

Compared with B5, B8 is lower in “DiscoveRx cAMP agonism Emax” value: 35 for the first, 9 for the second.
